Measured values published in US20170157198A1.
Each block holds one binder with its values, some of them ahead of it.

Assays:
[1] = biological target: T1, TFPI (human TFPI-1α), as coated or added in the ELISA and model assays (human), P10646; experiment: ELISA; conditions: modification not given
[2] = biological target: T1, TFPI (human TFPI-1α), as coated or …; experiment: competition; conditions: modification not given

IC50 [1]: > 1670 nM
B1: JBT0783 (peptide)
chain: LKARLREFYGFVFVNKKSQF

IC50 [1]: 27 nM
B2: JBT0720 (peptide)
chain: FQSKGNVFVTGYFARLRAKL

IC50 [2]: 68 nM
B3: JBT0681 (peptide)
chain: FQSKGAVFVFGYFARLRAKL
